For orientation: Kd means the free concentration of one partner at which half of the binding sites on the other are occupied at equilibrium, for simple one-to-one binding. Read a high Kd as a looser complex.

From publication PMC13185593 come the findings set out here.

The series concerns HuR. The series can be described thus: SPR. The conditions noted are these: SPR: 25 mM Tris pH 7.5, 100 mM KCl, 7 mM b-mercaptoethanol, 10% glycerol, 25 C, UV crosslinking: 5 mM HEPES pH 7.6, 25 mM KCl, 2 mM MgCl2, 3.8% glycerol.

Consider “SARS-CoV-2 5'-UTR G210U+C241U, biotin (SPR)”, for which the Kd came out at 72.9 nM.
In turn, SARS-CoV-2 5'-UTR C241U, biotin (SPR) registered an equilibrium dissociation constant (Kd) of 339 nM. This Kd is about 4.7-fold higher than that of the substance before.
